Laboratory results published in the Human Domainome abundance scans (Beltran et al. 2025).

B1: Zinc finger protein ZIC 2, residues 250 to 295; numbered along this chain, O95409 (parent)
chain: QCIKQELICKWIDPEQLSNPKKSCNKTFSTMHELVTHVSVEHVGGP
B2: Homeobox protein SIX3, residues 212 to 262; numbered along this chain, O95343 (parent)
chain: CFKERTRSLLREWYLQDPYPNPSKKRELAQATGLTPTQVGNWFKNRRQRDR

Variants of: B1
Assay: abundance fitness (aPCA) (normalised: wild type 0, dead -1); higher = more abundant; growth selection in yeast, the domain comes from the species named
Conditions: Homo sapiens

Abundance fitness of substitutions, site by site:
E6: N -0.264 | S 0.009 | R -0.312 | A -0.351 | T -0.748 | Q -0.207 | V -0.778 | C -0.632 | I -1.62 | H -0.687 | K -0.687 | L -0.974 | G -0.198 | Y -0.653 | F -1.04 | W -0.767
Q5: V -0.779 | I -0.906 | M -0.688 | N 0.018 | P 0.037 | Y -0.641 | G -0.283 | H -0.382 | R -0.014 | C -0.733 | S -0.24 | A -0.071 | F -0.612 | D 0.366 | E 0.242 | K 0.05 | L -0.661 | T -0.22 | W -0.777
K10: D 0.018 | C -0.19 | V -0.4 | Y 0.165 | L -0.248 | P -0.45 | N 0.394 | H 0.236 | E 0.157 | W -0.277 | G -0.138 | T 0.33 | I -0.484 | A -0.193 | F -0.506 | Q 0.205
C9: H -1.03 | K -0.473 | D -0.758 | P -0.776 | S -0.78 | V -0.841 | W -1.03 | F -0.975 | E -0.578 | M -0.822 | A -0.651 | L -0.863 | I -0.96 | Q -0.675 | G -0.714 | Y -0.829
I8: N 0.586 | H 0.033 | R 0.241 | L -0.056 | W -0.31 | Q 0.171 | C -0.177 | M 0.031 | K 0.4 | D 0.384 | S 0.02 | Y -0.245 | V 0.086 | G 0.036 | T 0.041
K4: M -0.105 | L -0.184 | F -0.645 | N -0.085 | A -0.187 | Y -0.671 | C -0.411 | G -0.309 | S -0.204 | D 0.261 | I -0.734 | W -1.05 | Q -0.458 | T -0.304 | H -0.816 | E 0.088 | V -0.513 | P -0.236
I3: A -0.568 | W -0.376 | R -0.61 | Q 0.224 | P -0.586 | M 0.174 | E -0.352 | F -0.57 | T 0.052 | H -0.518 | C -0.673 | L -0.254 | N -0.602 | V -0.248 | K -0.652 | D -0.541 | Y -0.151 | S -0.526
I12: A -0.363 | F -0.179 | C 0.013 | P 0.018 | D -0.064 | N -0.417 | M -0.077 | H 0.098 | L -0.551 | Q -0.144 | K -0.085 | E 0.111 | G -0.278
Q1: L -0.356 | A 0.373 | Y -0.705 | M -0.131 | C -0.274 | S 0.503 | E -0.077 | G -0.22 | T 0.146 | V -0.349 | W -0.321 | N 0.294 | P -0.915 | H -0.101 | K -0.455 | D 0.21
C2: S 0.047 | E 0.123 | D 0.108 | V 0.419 | I 0.605 | H -0.126 | F -0.182 | Q 0.127 | K 0.194 | L 0.73 | G 0.259 | R -0.129 | T 0.126 | P -0.136 | N -0.176 | M 0.612
W11: L -0.079 | H 0.002 | S -0.212 | E 0.117 | V -0.115 | Q 0.241 | P -0.348 | G -0.089 | A -0.223 | M -0.146 | N -0.216 | T -0.413 | F 0.187 | Y 0.005 | K 0.216 | D -0.647 | R 0.037 | C -0.712
L7: A 0.097 | N 0.22 | P 0.194 | V 0.08 | M 0.191 | Y -0.152 | I -0.103 | T 0.001 | H 0.306 | K 0.309 | G -0.425 | E 0.17 | Q 0.401 | C -0.196 | F -0.322 | W -0.223 | R 0.044 | D -0.375

Variants of: B2
Assay: as above
Conditions: Homo sapiens

Abundance fitness of substitutions, site by site:
N45: A -0.452 | C -0.396 | L -0.28 | E -0.192 | H -0.209 | M -0.355 | T -0.255 | P -0.967 | Y -0.725 | K -0.368 | V -0.493 | Q -0.263 | G -0.58 | S -0.283 | W -0.655 | I -0.429 | R -0.063
Q48: H -0.042 | P -0.799 | Y -0.055 | A 0.028 | V -0.545 | L -0.225 | R 0.397 | W -0.117 | D -0.37 | M -0.431 | N -0.166 | T -0.242 | F -0.46 | S -0.124 | K 0.177 | C -0.147 | E -0.267
F43: Y -0.689 | V -1 | T -0.951 | W -0.915
R49: F -0.373 | C -0.539 | A -0.222 | V -0.153 | D -0.033 | K 0.025 | T -0.18 | L -0.388 | H -0.371 | I -0.216 | S -0.279 | N -0.221 | P -0.844 | E 0 | W -0.462 | G -0.373 | Q 0.018 | M -0.247 | Y -0.074
D50: V -0.699 | M -0.799 | T -0.582 | L -0.64 | Q -0.276 | H -0.515 | A -0.579 | E 0.189 | N -0.747 | Y -0.6 | S -0.491 | C -0.678 | I -0.737 | W -1.17 | G -0.609 | R -1.08
R51: F -0.18 | W -0.309 | G -0.375 | A -0.031 | V -0.441 | N -0.267 | E -0.155 | D 0.246
R47: S -0.723 | P -0.532 | I -0.613 | Q -0.473 | G -0.898 | T -0.84 | K -0.591 | F -0.548 | D -0.654 | V -0.586 | M -0.975 | W -0.641 | N -0.552 | C -0.804 | H -0.617 | A -0.465 | Y -0.945
K44: C -0.807 | Y -0.496 | G -0.72 | M -0.505 | R -0.115 | F -0.452 | W -0.623 | I -0.629 | V -0.48 | E -0.086 | N 0.017 | S -0.192 | L -0.407 | T -0.376 | D -0.356 | H -0.354 | Q 0.007 | A -0.286
R46: H -0.269 | S -0.326 | C -0.554 | M -0.182 | W -0.817 | P -0.611 | V -0.635 | D -0.67 | A -0.306 | E -0.167 | L -0.531 | Y -0.504 | T -0.117 | I -0.748 | F -0.63 | Q -0.045 | K 0.144 | N -0.456 | G -0.937
